Among the data in patent publication US20040081647A1 are survival of L929 cells values, retold here.

In this test the target is recombinant human TNFα (RDI) (human) (UniProt P01375). Kind of test: cell-based or functional assay.
Sequence of recombinant human TNFα (RDI) (human) (P01375 77-233 limits assumed): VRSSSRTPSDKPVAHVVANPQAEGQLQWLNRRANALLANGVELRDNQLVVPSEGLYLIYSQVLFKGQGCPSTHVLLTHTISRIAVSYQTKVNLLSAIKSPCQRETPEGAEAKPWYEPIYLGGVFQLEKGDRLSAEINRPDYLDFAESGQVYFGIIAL

B1: MMP7 (enzyme, UniProt P09237 95-267, looked up, species assumed)
Matrilysin: YSLFPNSPKWTSKVVTYRIVSYTRDLPHITVDRLVSKALNMWGKEIPLHFRKVVWGTADIMIGFARGAHGDSYPFDGPGNTLAHAFAPGTGLGGDAHFDEDERWTDGSSLGINFLYAATHELGHSLGMGHSSDPNAVMYPTYGNGDPQNFKLSQDDIKGIQKLYGKRSNSRKK
With B1, the survival of L929 cells at the dilution equivalent to ˜600 pg/ml TNFα after digestion was found to be 40 % survival.
